The target of series [1] is T1, H-Trp-Phe-Tyr-Ser(PO3H2)-Pro-Arg-pNA.
T1 chain: WFYSPR

The target in the next series is T2, peptide YFLMNENRYTSWNSE
T2 chain: YFLMNENRYTSWNSE

B1: MjTET (TET aminopeptidase of Methanocaldococcus jannaschii, product of gene MJ0555) (protein)
chain: MSVVEYLKKLSKLHGISGREDSVREFMKKELEKYCDSVEIDNFGNLIAKRGNKGKKIMIAAHMDEIGLMVKYIDDNGFLKFTKIGGIYDPTILNQKVVVHGSKGDLIGVLGSKPPHRMKEEEKTKIIKYEDMFIDIGAESREEAIEMGVNIGTWVSFLSEVYDLGKNRLTGKAFDDRVGCAVLLEVMKRLSEEDIDCQVYAVGTVQEEVGLKGARVSAFKINPDVAIALDVTIAGDHPGIKKEDAPVDLGKGPVVGIVDASGRGLIAHPKVLDMIKAVSEKYKIDVQWEVGEGGTTDATAIHLTREGIPTGVISVPARYIHTPVEVIDKRDLEKTVELVYNCIKEVNNFF
For the protein B1, the “peptide hydrolysis followed by reverse phase HPLC” value in series [1] is “After 5 minutes, the original peptide substrate was almost hydrolyzed and four peptide products were detected”. In the series with peptide YFLMNENRYTSWNSE, this protein gave a time necessary to hydrolyse 50% of the peptide, at 20 °C of 75 h; a time necessary to hydrolyse 50% of the peptide, at 30 °C of 55 h; a time necessary to hydrolyse 50% of the peptide, at 40 °C of 3.9 h; a time necessary to hydrolyse 50% of the peptide, at 50 °C of 1.3 h. In the series with peptide YFLMNENRYTSWNSE, this protein registered a time necessary to hydrolyse 50% of the peptide, at 60 °C of 1 h; a time necessary to hydrolyse 50% of the peptide, at 70 °C of 0.6 h; a time necessary to hydrolyse 50% of the peptide, at 80 °C of 0.25 h.

B2: PhTET2 (leucyl aminopeptidase of Pyrococcus horikoshii) (protein)
chain: MEVRNMVDYELLKKVVEAPGVSGYEFLGIRDVVIEEIKDYVDEVKVDKLGNVIAHKKGEGPKVMIAAHMDQIGLMVTHIEKNGFLRVAPIGGVDPKTLIAQRFKVWIDKGKFIYGVGASVPPHIQKPEDRKKAPDWDQIFIDIGAESKEEAEDMGVKIGTVITWDGRLERLGKHRFVSIAFDDRIAVYTILEVAKQLKDAKADVYFVATVQEEVGLRGARTSAFGIEPDYGFAIDVTIAADIPGTPEHKQVTHLGKGTAIKIMDRSVICHPTIVRWLEELAKKHEIPYQLEILLGGGTDAGAIHLTKAGVPTGALSVPARYIHSNTEVVDERDVDATVELMTKALENIHELKI
In the case of B2, the “time necessary to hydrolyse 50% of the peptide, at 40 °C” value in the series with peptide YFLMNENRYTSWNSE was 0.5 h for PhTET2 compared to 3,9 h for MjTET at 40 °C.

(Values after US20210002623.)
